Experimental findings from patent EP4692122A1, “HUMANIZED ANTIBODIES TARGETING EPHA10” (priority 2023, dated 2024) are described below.

Assay [1] addresses T1, mouse EphA10 on mouse EphA10 overexpressing cell line (mouse, UniProt Q8BYG9 23-1007).
T1 construct: whole, on cells; Parent cell line of the mouse EphA10 overexpressing line not clearly stated
T1 sequence (looked up): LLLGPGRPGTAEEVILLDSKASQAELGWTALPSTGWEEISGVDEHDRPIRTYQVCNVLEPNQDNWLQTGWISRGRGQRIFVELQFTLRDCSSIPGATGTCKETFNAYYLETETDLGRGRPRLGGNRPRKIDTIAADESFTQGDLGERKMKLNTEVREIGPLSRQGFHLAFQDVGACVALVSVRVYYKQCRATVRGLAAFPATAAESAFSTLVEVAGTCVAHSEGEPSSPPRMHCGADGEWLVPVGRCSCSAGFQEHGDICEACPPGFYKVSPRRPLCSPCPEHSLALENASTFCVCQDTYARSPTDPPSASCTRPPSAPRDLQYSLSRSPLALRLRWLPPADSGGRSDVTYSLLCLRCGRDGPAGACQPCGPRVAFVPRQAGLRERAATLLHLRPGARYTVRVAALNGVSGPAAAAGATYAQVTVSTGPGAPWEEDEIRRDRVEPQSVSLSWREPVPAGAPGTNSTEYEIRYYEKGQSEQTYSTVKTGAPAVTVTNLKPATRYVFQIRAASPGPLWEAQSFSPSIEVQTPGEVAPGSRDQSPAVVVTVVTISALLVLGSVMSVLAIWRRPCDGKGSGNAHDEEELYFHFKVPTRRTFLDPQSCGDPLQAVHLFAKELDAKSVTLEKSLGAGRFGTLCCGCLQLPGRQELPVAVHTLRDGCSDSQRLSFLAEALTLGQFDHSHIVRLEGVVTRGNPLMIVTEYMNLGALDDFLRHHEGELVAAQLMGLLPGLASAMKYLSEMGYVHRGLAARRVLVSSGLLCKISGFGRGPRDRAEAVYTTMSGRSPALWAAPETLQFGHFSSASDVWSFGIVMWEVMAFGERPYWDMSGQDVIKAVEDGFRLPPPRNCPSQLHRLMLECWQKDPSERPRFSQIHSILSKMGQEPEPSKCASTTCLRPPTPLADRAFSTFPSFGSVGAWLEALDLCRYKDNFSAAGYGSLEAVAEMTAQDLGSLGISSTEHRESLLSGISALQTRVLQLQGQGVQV
Kind of assay: flow cytometry on mouse EphA10 overexpressing cells, 500 ng antibody.

The target of assay [2] is T2, human EphA10 on MDA-MB-231 human EphA10 overexpressing cell line (human, UniProt Q5JZY3 34-1008).
T2 construct: whole, on cells; also called hEphA10; cell-expressing-EphA10
T2 sequence (looked up): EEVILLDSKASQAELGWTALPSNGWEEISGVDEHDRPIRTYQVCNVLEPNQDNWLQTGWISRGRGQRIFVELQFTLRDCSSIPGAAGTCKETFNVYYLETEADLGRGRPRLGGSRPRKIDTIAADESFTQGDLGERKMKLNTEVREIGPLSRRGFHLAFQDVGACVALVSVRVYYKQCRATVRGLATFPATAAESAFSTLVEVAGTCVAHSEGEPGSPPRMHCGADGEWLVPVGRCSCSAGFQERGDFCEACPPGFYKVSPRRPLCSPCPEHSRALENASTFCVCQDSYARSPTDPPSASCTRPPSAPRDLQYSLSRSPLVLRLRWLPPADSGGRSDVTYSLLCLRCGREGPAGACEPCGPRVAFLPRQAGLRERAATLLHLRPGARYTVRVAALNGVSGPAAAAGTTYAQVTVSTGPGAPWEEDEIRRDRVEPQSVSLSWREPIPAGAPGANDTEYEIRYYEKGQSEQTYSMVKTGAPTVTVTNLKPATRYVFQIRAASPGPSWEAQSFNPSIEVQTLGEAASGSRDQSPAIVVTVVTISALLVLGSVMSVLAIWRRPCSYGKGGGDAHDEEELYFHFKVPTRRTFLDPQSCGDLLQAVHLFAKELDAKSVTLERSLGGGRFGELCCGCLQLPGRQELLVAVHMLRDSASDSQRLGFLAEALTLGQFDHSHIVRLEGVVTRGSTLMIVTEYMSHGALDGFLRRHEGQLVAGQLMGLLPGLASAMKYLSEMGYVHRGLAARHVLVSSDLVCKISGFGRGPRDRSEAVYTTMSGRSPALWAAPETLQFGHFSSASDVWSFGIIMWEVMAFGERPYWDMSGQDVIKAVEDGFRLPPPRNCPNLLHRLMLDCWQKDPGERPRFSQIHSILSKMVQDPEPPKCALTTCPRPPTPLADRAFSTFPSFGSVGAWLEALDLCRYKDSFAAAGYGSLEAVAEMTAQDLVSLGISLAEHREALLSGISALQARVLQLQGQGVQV
Put plainly: flow cytometry on MDA-MB-231 human EphA10 overexpressing cells, 500 ng antibody.

In assay [3] the target is T3, mEphA10-Fc (mouse EphA10 fused with human Fc) (mouse; human, UniProt Q8BYG9 23-565).
T3 construct: extracellular domain; not shown: human Fc
T3 sequence (looked up): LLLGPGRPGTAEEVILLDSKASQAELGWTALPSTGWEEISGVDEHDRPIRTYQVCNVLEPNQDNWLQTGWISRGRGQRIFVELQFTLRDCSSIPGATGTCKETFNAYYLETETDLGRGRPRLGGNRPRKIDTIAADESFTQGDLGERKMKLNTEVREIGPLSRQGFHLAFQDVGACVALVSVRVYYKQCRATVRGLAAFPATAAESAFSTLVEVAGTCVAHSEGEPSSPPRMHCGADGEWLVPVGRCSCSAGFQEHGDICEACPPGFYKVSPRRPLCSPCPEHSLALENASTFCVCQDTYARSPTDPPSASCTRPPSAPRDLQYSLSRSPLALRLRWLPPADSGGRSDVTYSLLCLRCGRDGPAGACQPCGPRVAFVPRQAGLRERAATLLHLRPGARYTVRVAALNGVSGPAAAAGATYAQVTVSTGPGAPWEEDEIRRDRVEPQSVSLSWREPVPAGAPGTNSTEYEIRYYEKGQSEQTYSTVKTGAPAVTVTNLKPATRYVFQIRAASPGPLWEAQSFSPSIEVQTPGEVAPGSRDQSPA
Put plainly: ELISA, mEphA10-Fc coated, anti-human kappa HRP. For orientation: An ELISA detects its analyte on a solid surface through an enzyme-linked reagent.

Assay [4] concerns hEphA10 overexpressing cell line. Put plainly: Cancer cell killing by cell survival analysis using ATP measurement (CellTiter-Glo). Format: cell-based, human. The note with it: stated as a consequence of the lost EphA10 binding of the ADC (FIG. 11). Here is the method:
To confirm the efficacy of ADC in vitro, a cancer cell killing effect was confirmed through cell survival analysis using ATP measurement. Specifically, MDA-MB-231 naive cells (control group), a mock cell line (negative control group), and a hEphA10 overexpressing cell line were dispensed at 2 × 10^4 per well in a 96-well white plate (SPL), respectively, and the following day, the ADC produced in Example 6 was diluted in RPMI (Capricorn) for each concentration, treated by 100 µl per well, and then incubated at 37°C for 48 hours. The ADC-treated plate was incubated at room temperature outside the incubator for 5 minutes, 50 µl of a CellTiter-Glo solution was added to each well, and then the plate was shaken at 500 rpm for 2 minutes. After reacting for 10 minutes on a room temperature bench in a light-blocked state, ATP was measured using a Synergy HTX multimode reader (Biotek).
To verify the effect of two types of EphA10-targeting ADCs A7-MMAE and 2W_MMAE produced using A7 and 2W antibodies, cell viability analysis of cancer cells was performed by measuring ATP as in Example 7-1 above.
In general terms: In ATP-based viability assays light output follows the ATP content of the culture.

Assay [5] has as its target T4, EphA10 fused with human Fc (Homo sapiens, UniProt Q5JZY3).
T4 construct: a vector for expressing an extra cellular domain (ECD) of EphA10 or a FNIII domain of the ECD was produced; made in house; host or cells: Expi293F
T4 sequence (Q5JZY3 34-565 limits assumed): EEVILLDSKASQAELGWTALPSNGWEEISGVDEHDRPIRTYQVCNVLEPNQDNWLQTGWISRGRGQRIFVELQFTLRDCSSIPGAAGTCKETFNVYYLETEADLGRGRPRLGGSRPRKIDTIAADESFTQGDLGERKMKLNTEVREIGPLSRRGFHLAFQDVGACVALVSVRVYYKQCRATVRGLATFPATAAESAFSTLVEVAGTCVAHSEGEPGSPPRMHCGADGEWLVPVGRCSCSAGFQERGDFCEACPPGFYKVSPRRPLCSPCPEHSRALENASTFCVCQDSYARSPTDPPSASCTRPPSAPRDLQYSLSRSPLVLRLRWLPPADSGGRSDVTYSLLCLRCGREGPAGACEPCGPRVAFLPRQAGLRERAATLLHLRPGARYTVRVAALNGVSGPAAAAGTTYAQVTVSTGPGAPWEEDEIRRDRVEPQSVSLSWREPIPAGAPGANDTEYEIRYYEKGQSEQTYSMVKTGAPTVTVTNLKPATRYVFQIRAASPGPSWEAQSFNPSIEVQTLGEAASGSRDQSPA
Kind of assay: ELISA analysis of binding activity to EphA10. The following applies: ELISA (FIG. 11, FIG. 20). Here is the method:
The binding activity to EphA10 of the five EphA10-binding humanized antibodies purified in Example 3 was analyzed by ELISA. Specifically, 4 µg/ml of EphA10 fused with human Fc was diluted with a 0.05 M Na2CO3 (pH 9.6) solution and immobilized in 50 µl of a Flat Bottom Polystyrene High Bind 96-well microplate (costar) at 4°C for 16 hours, and then blocked with 100 µl of 4% skim milk (GenomicBase) at room temperature for 2 hours. […] 50 µl of a 1-Step Ultra TMB-ELISA substrate solution (Thermo Fisher Scientific) was added to develop color, and then added with 50 µl each of 2 M H2SO4 to terminate the reaction, and then analyzed using an Epoch microplate spectrophotometer (BioTek). […]
As the sequencing result, it was confirmed that a free cysteine amino acid that was not involved in disulfide bonds existed in the CDR region of the light chain of the EphA10-specific humanized antibody (FIG. 10). […] To verify this, the binding activities of EphA10-specific humanized antibody 1-1 and EphA10-targeting ADC antibody 1-1 (ADC) after ADC production were analyzed and compared by ELISA.
In Example 8 above, the binding activity to EphA10 of antibodies 1-1-A, 1-1-S, 1-2-A, and 1-2-S, in which the free cysteines present in the light chains of two types of EphA10-specific humanized antibodies 1-1 and 1-2 were substituted with serines and alanines, was analyzed by ELISA. […]

Residue numbers refer to the chain shown, from its start.

B1: EphA10-specific humanized antibody 1-1 (antibody, V domains shown)
VH: QVTLKESGPTLVKPTQTLTLTCTFSGFSLSTSGMGVGWIRQPPGKALEWLAHIWWDDVKRYNPALKSRLTITKDTSKNQVVLTMTNMDPVDTATYYCARTSFPAGVDYWGQGTLVTVSS
VL: DVVMTQSPLSLPVTLGQPASISCRSSQSLQNSNGNTCLNWFQQRPGQSPRRLIYRVSNRFSGVPDRFSGSGSGTDFTLKISRVEAEDVGVYYCLQVTHVPFTFGQGTKLEIKR
notes: Expressed in Expi293F cells in IgG form; detected with anti-human kappa chain; also called IMGT 1-1
In the case of B1, the binding result in assay [1] and in assay [2] was “binds” each time.

B2: antibody A.7 (antibody, V domains shown)
VH: B1 VH
VL: B1 VL with C37Y, V96G
notes: also called A7 antibody
Consider B2, for which the binding result in assay [3] is “binds”.

B3: 1-1 (ADC) (conjugate)
VH: B1 VH
VL: B1 VL
modifications: non-natural residues
As to B3, the “in vitro ADC efficacy” value in assay [4] is “greatly reduced”. Further, the “EphA10 binding activity of the ADC compared with the antibody before ADC production” value in assay [5] was “greatly reduced”.

B4: antibody 2-W (antibody, V domains shown)
VH: B1 VH
VL: B1 VL with V2I, S7T, P12S, L15P, C37W, F41Y, Q42L, R44K, R50Q, R51L
notes: 1-2 with the free light chain CDR cysteine replaced by tryptophan; IgG form; also called 2W antibody; W2
With B4, the binding result in assay [3] is given as “binds”.

B5: EphA10-specific humanized antibody 1-2 (antibody, V domains shown)
VH: B1 VH
VL: B1 VL with V2I, S7T, P12S, L15P, F41Y, Q42L, R44K, R50Q, R51L
notes: Expressed in Expi293F cells in IgG form; detected with anti-human kappa chain; also called IMGT 1-2
Consider B5, for which the binding result in assay [1] and in assay [2] was “binds” throughout.
